Data from article PMC5586147 (Nature, 2017).

Biological target: human pro-TGF-β1 (C4S, R249A furin-site mutant, N107Q, N147Q), purified (human)
Assay: crystal structure

stoichiometry N: 1 αVβ6 head per pro-TGF-β1 dimer
B1: integrin αVβ6 head (three-domain fragment: αV β-propeller and thigh domains, β6 βI domain) (complex)
chain 1: FNLDVDSPAEYSGPEGSYFGFAVDFFVPSASSRMFLLVGAPKANTTQPGIVEGGQVLKCDWSSTRRCQPIEFDATGNRDYAKDDPLEFKSHQWFGASVRSKQDKILACAPLYHWRTEMKQEREPVGTCFLQDGTKTVEYAPCRSQDIDADGQGFCQGGFSIDFTKADRVLLGGPGSFYWQGQLISDQVAEIVSKYDPNVYSIKYNNQLATRTAQAIFDDSYLGYSVAVGDFNGDGIDDFVSGVPRAARTLGMVYIYDGKNMSSLYNFTGEQMAAYFGFSVAATDINGDDYADVFIGAPLFMDRGSDGKLQEVGQVSVSLQRASGDFQTTKLNGFEVFARFGSAIAPLGDLDQDGFNDIAIAAPYGGEDKKGIVYIFNGRSTGLNAVPSQILEGQWAARSGCPPSFGYSMKGATDIDKNGYPDLIVGAFGVDRAILYRARPVITVNAGLEVYPSILNQDNKTCSLPGTALKVSCFNVRFCLKADGKGVLPRKLNFQVELLLDKLKQKGAIRRALFLYSRSPSHSKNMTISRGGLMQCEELIAYLRDESEFRDKLTPITIFMEYRLDYRTAADTTGLQPILNQFTPANISRQAHILLD
chain 2: TEDYPVDLYYLMDLSASMDDDLNTIKELGSRLSKEMSKLTSNFRLGFGSFVEKPVSPFVKTTPEEIANPCSSIPYFCLPTFGFKHILPLTNDAERFNEIVKNQKISANIDTPEGGFDAIMQAAVCKEKIGWRNDSLHLLVFVSDADSHFGMDSKLAGIVCPNDGLCHLDSKNEYSMSTVLEYPTIGQLIDKLVQNNVLLIFAVTQEQVHLYENYAKLIPGATVGLLQKDSGNILQLIISAYEELRSEVELE
